T1: human CD19 on Raji cells (human, UniProt P15391 20-556)
T1 construct: whole, on cells
T1 sequence (looked up): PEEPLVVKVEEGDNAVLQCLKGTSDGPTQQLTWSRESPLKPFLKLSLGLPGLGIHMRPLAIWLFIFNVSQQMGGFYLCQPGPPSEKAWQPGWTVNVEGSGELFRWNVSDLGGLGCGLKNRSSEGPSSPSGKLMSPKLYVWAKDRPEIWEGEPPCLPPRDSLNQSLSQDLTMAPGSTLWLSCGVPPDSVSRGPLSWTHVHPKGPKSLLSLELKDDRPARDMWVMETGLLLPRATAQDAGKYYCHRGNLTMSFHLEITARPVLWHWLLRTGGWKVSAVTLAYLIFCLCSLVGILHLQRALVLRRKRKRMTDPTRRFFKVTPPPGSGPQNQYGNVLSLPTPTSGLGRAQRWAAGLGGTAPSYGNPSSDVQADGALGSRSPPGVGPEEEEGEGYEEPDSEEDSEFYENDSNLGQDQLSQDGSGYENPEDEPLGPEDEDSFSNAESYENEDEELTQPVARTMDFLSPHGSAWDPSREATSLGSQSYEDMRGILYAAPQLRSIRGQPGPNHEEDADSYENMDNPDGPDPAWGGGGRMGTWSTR

T2: Human CD19-his protein (human, UniProt P15391 20-291)
T2 construct: bought protein; also called recombinant human CD19-His; CD19 full-length protein; not shown: His tag
T2 sequence (looked up): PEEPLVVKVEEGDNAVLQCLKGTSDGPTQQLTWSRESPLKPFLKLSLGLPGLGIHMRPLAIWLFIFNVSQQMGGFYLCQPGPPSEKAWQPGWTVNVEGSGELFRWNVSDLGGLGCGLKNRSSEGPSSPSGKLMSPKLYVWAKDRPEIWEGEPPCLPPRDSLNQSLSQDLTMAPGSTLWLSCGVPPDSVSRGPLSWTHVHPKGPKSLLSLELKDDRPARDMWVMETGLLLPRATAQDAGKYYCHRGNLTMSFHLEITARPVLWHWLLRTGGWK

T3: human CD19 on CHO-K1-human CD19 cells (human, UniProt P15391 20-556)
T3 construct: whole, on cells; also called CHO-K1-human CD19-2C8
T3 sequence (looked up): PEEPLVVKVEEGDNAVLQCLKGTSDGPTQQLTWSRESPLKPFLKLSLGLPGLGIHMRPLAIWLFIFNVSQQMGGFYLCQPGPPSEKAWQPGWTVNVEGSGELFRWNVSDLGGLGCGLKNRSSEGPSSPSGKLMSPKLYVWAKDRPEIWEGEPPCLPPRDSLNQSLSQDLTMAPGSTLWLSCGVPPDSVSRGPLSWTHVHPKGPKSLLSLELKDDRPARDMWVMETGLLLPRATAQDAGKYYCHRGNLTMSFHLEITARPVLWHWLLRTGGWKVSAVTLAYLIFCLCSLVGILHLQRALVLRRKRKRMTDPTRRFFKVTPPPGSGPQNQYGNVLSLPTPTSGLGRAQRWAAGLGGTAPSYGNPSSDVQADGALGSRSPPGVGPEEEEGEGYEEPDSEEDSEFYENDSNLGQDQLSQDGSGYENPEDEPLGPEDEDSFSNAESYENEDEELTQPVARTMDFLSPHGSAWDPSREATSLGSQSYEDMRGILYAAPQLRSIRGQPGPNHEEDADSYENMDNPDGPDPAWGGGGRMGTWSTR

T4: human CD19 exon1-3-His tag protein (human, UniProt P15391 20-186, limits assumed)
T4 construct: membrane-distal part of the extracellular region, made in HEK293E cells; not shown: His tag
T4 sequence (looked up): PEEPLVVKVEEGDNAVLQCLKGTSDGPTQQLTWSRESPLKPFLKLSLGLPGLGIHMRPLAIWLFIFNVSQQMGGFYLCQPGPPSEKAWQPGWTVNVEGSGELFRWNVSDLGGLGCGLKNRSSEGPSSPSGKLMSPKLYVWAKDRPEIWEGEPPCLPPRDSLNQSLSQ


How the values were obtained:
human CD19 on Raji cells = biological target: T1, human CD19 on Raji cells; experiment: FACS on Raji cells
Procedure: (§1) After the digestion was terminated, the cells were washed 2 times with a PBS buffer; and for suspension cell Raji, the supernatant of the medium was discarded by directly centrifugation, and the cell pellet was washed 2 times with PBS. After counting the cells in the previous step, the cell pellet was resuspended with [PBS+2% (w/w) BSA] blocking solution to 2×10⁶ cells/ml, and added to a 96-well FACS reaction plate at 50 μl/well, and then the sample to be tested was added at 50 μl/well, and incubated on ice for 2 h. The obtained mixture was centrifuged and washed 3 times with a PBS buffer. […] The obtained mixture was centrifuged and washed 5 times with a PBS buffer, and FACS (FACS Canto™, purchased from BD Company) was used for detection and result analysis. Data analysis was performed by software (FlowJo) to obtain the mean fluorescence intensity (MFI) of the cells. And then software (GraphPad Prism8) was used for analysis, data fitting, and EC50 value calculation. […] The same method was used to detect the binding of the chimeric antibodies to endogenous CD19-negative cells, MoLT4 cells (purchased from ATCC, CRL-1582), and CHO-K1 cells.

Human CD19-his protein [1] = biological target: T2, Human CD19-his protein; experiment: ELISA, coated human CD19-His
Procedure: Human CD19-his protein (purchased from ACROBiosystems, catalog number: CD9-H52H2) was diluted with PBS to a final concentration of 4 μg/mL, and then added to a 96-well ELISA plate at 100 μl/well. The plate was sealed with a plastic film and incubated overnight at 4° C., the plate was washed 2 times with PBS the next day, and then a blocking solution [PBS+2% (w/w) BSA] was added for blocking at room temperature for 2 h. The blocking solution was poured off, and 100 nM gradiently diluted CD19 chimeric antibody or control antibody was added at 50 μl/well. After incubation at 37° C. for 2 h, the plate was washed 3 times with PBS. […] TMB substrate was added at 50 μl/well, and incubated at room temperature for 10 min, and then a stop solution (1.0 N HCl) was added at 50 μl/well. The OD450 nm values were read by an ELISA microplate reader (Multimode Plate Reader, EnSight, purchased from Perkin Elmer).

[2] = biological target: T3, human CD19 on CHO-K1-human CD19 cells; experiment: FACS on CHO-K1-human CD19 cells
Procedure: as §1

Human CD19-his protein [3] = biological target: T2, Human CD19-his protein; experiment: ELISA on coated human CD19-His
[4] = biological target: T4, human CD19 exon1-3-His tag protein; experiment: ELISA, coated human CD19 exon 1-3-His
Human CD19-his protein [5] = biological target: T2, Human CD19-his protein; experiment: SPR Biacore, method of example 7.1, human CD19-His
Procedure: A sample buffer and a running buffer were HBS-EP+ (10 mM HEPES, 150 mM NaCl, 3 mM EDTA and 0.05% surfactant P20) (GE Healthcare; BR-1006-69). The flow-through cell was set to 25° C. The sample block was set to 16° C. Both were pretreated with the running buffer. In each cycle, an antibody to be detected was first captured with a Protein A chip, and then a single concentration of CD19 antigen protein was injected. The binding and dissociation processes of the antibody and the antigen protein were recorded, and finally Glycine pH 1.5 (GE Healthcare; BR-1003-54) was used to complete chip regeneration. The binding was measured by injecting different concentrations of recombinant human CD19-His proteins in a solution for 240 s with a flow rate of 30 μl/min. The concentration started from 200 nM (see the detailed results for the actual concentration in the test) and was diluted at 1:1, making a total of 5 concentrations. The dissociation phase was monitored for up to 600 s and was triggered by switching from sample solution to running buffer. The surface was regenerated by washing with a 10 mM glycine solution (pH 1.5) for 30 s at a flow rate of 30 μl/min. Bulk refractive index difference was corrected by subtracting the response obtained from the goat anti-human Fc surface. Blank injection was also subtracted (=double reference). For calculation of apparent KD and other kinetic parameters, Langmuir 1:1 model was used.
SPR (biacore) detection and data analysis were performed according to the method in example 7.1.

Row | EC50 (human CD19 on Raji cells) [nM] | Maximum mean fluorescence intensity (human CD19 on Raji cells) [MFI] | OD450 at 0.0001 nM (Human CD19-his protein [1]) [OD450] | OD450 at 0.001 nM (Human CD19-his protein [1]) [OD450] | OD450 at 0.01 nM (Human CD19-his protein [1]) [OD450] | OD450 at 0.10 nM (Human CD19-his protein [1]) [OD450] | OD450 at 1.00 nM (Human CD19-his protein [1]) [OD450] | OD450 at 10 nM (Human CD19-his protein [1]) [OD450] | OD450 at 100 nM (Human CD19-his protein [1]) [OD450] | EC50 [2] [nM] | Maximum mean fluorescence intensity [2] [MFI] | EC50 (read off the curve) (Human CD19-his protein [3]) [nM] | OD450 at 0.0001 nM [4] [OD450] | OD450 at 0.001 nM [4] [OD450] | OD450 at 0.01 nM [4] [OD450] | OD450 at 0.10 nM [4] [OD450] | OD450 at 1.00 nM [4] [OD450] | OD450 at 10 nM [4] [OD450] | OD450 at 100 nM [4] [OD450] | Kd (Human CD19-his protein [5]) [nM] | Binder | other results
1 | 0.45 | 29600 | 0.1 | 0.14 | 0.39 | 1.55 | 2.47 | 2.33 | 2.32 | 1.17 | 52200 | ~0.05 | 0.05 | 0.05 | 0.05 | 0.05 | 0.05 | 0.05 | 0.08 | 1.38 | F3.121.4-L2H3 (antibody, mouse IgG1, kappa, humanized antibody of F3.121.4, VL2+VH3, murine IgG1 constant regions) heavy: EVQLVQSGAEVKKPGASVKVSCKASGYTFTNYWMHWVRQRPGQGLEWMGEIDPSDNYANYNQEFQGRVTITVDKSASTAYMELSSLRSEDTAVYYCARHDGYFGALDYWGQGTTVTVSSAKTTPPSVYPLAPGSAAQTNSMVTLGCLVKGYFPEPVTVTWNSGSLSSGVHTFPAVLQSDLYTLSSSVTVPSSTWPSETVTCNVAHPASSTKVDKKIVPRDCGCKPCICTVPEVSSVFIFPPKPKDVLTITLTPKVTCVVVDISKDDPEVQFSWFVDDVEVHTAQTQPREEQFNSTFRSVSELPIMHQDWLNGKEFKCRVNSAAFPAPIEKTISKTKGRPKAPQVYTIPPPKEQMAKDKVSLTCMITDFFPEDITVEWQWNGQPAENYKNTQPIMDTDGSYFVYSKLNVQKSNWEAGNTFTCSVLHEGLHNHHTEKSLSHSPGK light: EIVLTQSPDFQSVTPKEKVTITCSASSSISSNYLHWYQQKPDQSPKLLIKRTSNLASGVPSRFSGSGSGTDFTLTINSLEAEDAATYYCQQASSIPRMFTFGQGTKLEIKRADAAPTVSIFPPSSEQLTSGGASVVCFLNNFYPKDINVKWKIDGSERQNGVLNSWTDQDSKDSTYSMSSTLTLTKDEYERHNSYTCEATHKTSTSPIVKSFNRNEC | koff (Human CD19-his protein [5]): 0.000188 s⁻¹; kon (Human CD19-his protein [5]): 137000 M⁻¹ s⁻¹
2 | 0.38 | 32000 | 0.1 | 0.14 | 0.39 | 1.62 | 2.42 | 2.37 | 2.17 | 1.13 | 53500 | ~0.05 | 0.05 | 0.05 | 0.05 | 0.05 | 0.05 | 0.05 | 0.09 | 0.244 | F3.121.4-L3H1 (antibody, mouse IgG1, kappa, V domains shown, humanized antibody of F3.121.4, VL3+VH1, murine IgG1 constant regions) VH: EVQLVQSGAEVKKPGASVKVSCKASGYTFTNYWMHWVRQAPGQRLEWMGEIDPSDNYANYNQEFQGRVTITVDKSASTAYMELSSLRSEDTAVYYCARHDGYFGALDYWGQGTTVTVSS VL: EIVLTQSPDFQSVTPKEKVTITCSASSSISSNYLHWYQQKPDQSPKFLIYRTSNLASGVPSRFSGSGSGTDFTLTINSLEAEDAATYYCQQASSIPRMFTFGQGTKLEIKR | koff (Human CD19-his protein [5]): 3.18e-05 s⁻¹; kon (Human CD19-his protein [5]): 130000 M⁻¹ s⁻¹

Reference: patent US20250042994A1 (HAINAN SIMCERE ZAIMING PHARMACEUTICAL, published 2025)
